Columns and labels:
hep3B cells = experiment: hep3B proliferation assay; assay type: cell-based, human
Description: (§1) For the proliferation assay, cells except for HUVEC were seeded at a density of 1,000 to 6,000 in 96 wells in an assay buffer of DMEM/F12 plus 0.2% BSA and 10 ug/ml transferrin. Chemical inhibitors were added after 16-20 hours after plating; IGF-1 or other growth factors or test chimeras in assay buffer were added at the time of plating or 16-20 hours after plating. 5,000 HUVEC ells were plated in poly-L-lysine coated 96 wells in M199 with 1%/FBS and HEPES. After 3 to 4 days of culture, growth was determined by incubating cells with Alamar blue for 4 to 6 hours and then the fluorescence (RFU) at 544/590 nm was read. For long term proliferation assays, cells were plated in the growth media with 5% or 10% FBS at densities of 500 to 10,000 cells per cm^2 growth area and grown for 7 to 21 days. Inhibitors and effectors were added 1-4 days after plating. Cells were exposed to cisplatin or gemcitabine for two days. Medium was renewed twice weekly. At completion, cells were fixed and then stained with Giemsa.
The human hepatoma cell line hep3B could be stimulated by many growth factors including IGF-1, IGF-2, HGF, bFGF, VEGF, and neuregulin.

[1] = test system: MCF-7 breast cancer cells; experiment: MCF-7 proliferation assay; assay type: cell-based; details: fetal bovine serum; FIG. 1, FIG. 4
Description: (§2) MCF-7 cells (a breast cancer cell line) were maintained in MEM (GIBCO) plus insulin and NEAA and 10% FBS (Hyclone).
as §1
We next examined the effect of 56662 (BP3/Fc) on the proliferation induced by growth factors that interacted with the IGFBP3. The proliferation of MCF-7 breast cancer cells was induced in serum-free medium by individual growth factors like IGF-1, IGF-2, EGF, TGF-a, Nrgbx, b-FGF, and amphiregulin (FIG. 1).

HT29 cells = experiment: HT29 proliferation assay; assay type: cell-based, human; details: FIG. 17A isobologram, FIG. 17B
Description: as §2, §1
The combination of drug (erlotinib and vemurafenib in hep3b and HT29 cells, respectively) and chimera can be synergistic; so, in addition to enhancing the inhibition, the chimera addition may also lower drug concentration requirements and reduce side effects.

HUVEC cells = experiment: HUVEC proliferation assay; assay type: cell-based
Description: as §2, §1
Growth factor synergism can also be observed in the proliferation of HUVEC cells.

COc1cccc2c1C(=O)c1c(O)c3c(c(O)c1C2=O)C[C@@](O)(C(=O)CO)C[C@@H]3O[C@H]1C[C@H](N)[C@H](O)[C@H](C)O1 [doxorubicin, reference compound]
proliferation of hep3B cells (hep3B cells; 0.01 uM doxorubicin): greatly inhibited

B1: 105795: IGFBP3 with IGFBP4 linker deletion-Fc, SEQ ID NO: 9 (protein)
chain: MSEVPVARVWLVLLLLTVQVGVTAGGASSAGLGPVVRCEPCDARALAQCAPPPAVCAELVREPGCGCCLTCALSEGQPCGIYTERCGSGLRCQPSPDEARPLQALLDGRGLCMELAEIEAIQESLQPSDKDEGDHPNNSFSPCSAHDRRCLQETEYGPCRREMEDTLNHLKFLNVLSPRGVHIPNCDKKGFYKKKQCRPSKGRKRGFCWCVDKYGQPLPGYTTKGKEDVHCYSMQSKVECPPCPAPPVAGPSVFLFPPKPKDQLMISRTPEVTCVVVDVSHEDPEVKFNWYVDGVEVHNAKTKPREEQYNSTYRVVSVLTVLHQDWLNGKEYKCKVSNKGLPSSIEKTISKAKGQPREPQVYTLPPSREEMTKNQVSLTCLVKGFYPSDIAVEWESNGQPENNYKTTPPVLDSDGSFFLYSKLTVDKSRWQQGNVFSCSVMHEGLHNHYTQKSLSLSPGK
inhibition of FBS-induced proliferation of MCF-7 [1]: unable to inhibit

B2: D2V1V2Fc: IGFBP3 with IGFBP3 linker deletion 2-gly 3 linker-v1v2-Fc, SEQ ID NO: 17 (protein)
chain: MSEVPVARVWLVLLLLTVQVGVTAGHHHHHHGASSAGLGPVVRCEPCDARALAQCAPPPAVCAELVREPGCGCCLTCALSEGQPCGIYTERCGSGLRCQPSPDEARPLQALLDGRGLCVNASAVSRPAPPAPGNASESEEDRSAGSVESPSVSSTHRVSDPKFHPKGHAKDSQRYKVDYESQSTDTQNFSSESKRETEYGPCRREMEDTLNHLKFLNVLSPRGVHIPNCDKKGFYKKKQCRPSKGRKRGFCWCVDKYGQPLPGYTTKGKEDVHCYSMQSKAPPAPGNASESEEDRSAGIYIFISDTGRPFVEMYSEIPEIIHMTEGRELVIPCRVTSPNITVTLKKFPLDTLIPDGKRIIWDSRKGFIISNATYKEIGLLTCEATVNGHLYKTNYLTHRQGYRIYDVVLSPSHGIELSVGEKLVLNCTARTELNVGIDFNWEYPSSKHQHKKLVNRDLKTQSGSEMKKFLSTLTIDGVTRSDQGLYTCAASSGLMTKKNSTFVRVHEKVECPPCPAPPVAGPSVFLFPPKPKDQLMISRTPEVTCVVVDVSHEDPEVKFNWYVDGVEVHNAKTKPREEQYNSTYRVVSVLTVLHQDWLNGKEYKCKVSNKGLPSSIEKTISKAKGQPREPQVYTLPPSREEMTKNQVSLTCLVKGFYPSDIAVEWESNGQPENNYKTTPPVLDSDGSFFLYSKLTVDKSRWQQGNVFSCSVMHEGLHNHYTQKSLSLSPGK
inhibition with vemurafenib in HT29 cells (HT29 cells): synergistic inhibition
inhibition of HUVEC proliferation stimulated by IGF-1, bFGF, HGF, VEGF, and combinations (HUVEC cells; FIG. 14): inhibited

B3: met3con: SEQ ID NO: 32; Met3con is the met3 domain Fc (protein)
chain: MSEVPVARVWLVLLLLTVQVGVTAGAAASGGGSGGGGSGGGGSGGGGDPIVYEIHPTKSFISTWWKEPLNIVSFLFCFASGGSTITGVGKNLNSVSVPRMVINVHEAGRNFTVACQHRSNSEIICCTTPSLQQLNLQLPLKTKAFFMLDGILSKYFDLIYVHSGGGSGGGTGVECPPCPAPPVAGPSVFLFPPKPKDQLMISRTPEVTCVVVDVSHEDPEVKFNWYVDGVEVHNAKTKPREEQYNSTYRVVSVLTVLHQDWLNGKEYKCKVSNKGLPSSIEKTISKAKGQPREPQVYTLPPSREEMTKNQVSLTCLVKGFYPSDIAVEWESNGQPENNYKTTPPVLDSDGSFFLYSKLTVDKSRWQQGNVFSCSVMHEGLHNHYTQKSLSLSPGK
IC50, FBS-stimulated proliferation of hep3B cells (hep3B cells; Table 10): no inh
IC50, HGF-stimulated proliferation of hep3B cells (hep3B cells; Table 10): no inh
IC50, IGF1-stimulated proliferation of hep3B cells (hep3B cells; Table 10): No inh
IC50, bFGF-stimulated proliferation of hep3B cells (hep3B cells; Table 10): no inh
IC50, nrg-stimulated proliferation of hep3B cells (hep3B cells; Table 10): No inh

B4: 3(del2)3: IGFBP3 with IGFBP3 linker deletion 2-Fc, SEQ ID NO: 11 (protein)
chain: MSEVPVARVWLVLLLLTVQVGVTAGGASSAGLGPVVRCEPCDARALAQCAPPPAVCAELVREPGCGCCLTCALSEGQPCGIYTERCGSGLRCQPSPDEARPLQALLDGRGLCVNASAVSRPAPPAPGNASESEEDRSAGSVESPSVSSTHRVSDPKFHPKGHAKDSQRYKVDYESQSTDTQNFSSESKRETEYGPCRREMEDTLNHLKFLNVLSPRGVHIPNCDKKGFYKKKQCRPSKGRKRGFCWCVDKYGQPLPGYTTKGKEDVHCYSMQSKVECPPCPAPPVAGPSVFLFPPKPKDQLMISRTPEVTCVVVDVSHEDPEVKFNWYVDGVEVHNAKTKPREEQYNSTYRVVSVLTVLHQDWLNGKEYKCKVSNKGLPSSIEKTISKAKGQPREPQVYTLPPSREEMTKNQVSLTCLVKGFYPSDIAVEWESNGQPENNYKTTPPVLDSDGSFFLYSKLTVDKSRWQQGNVFSCSVMHEGLHNHYTQKSLSLSPGK
inhibition of VEGF-induced proliferation of HUVEC cells (HUVEC cells; FIG. 6, FIG. 13): did not inhibit
inhibition of HUVEC proliferation induced by IGF, bFGF, HGF or a combination (HUVEC cells; FIG. 13): inhibited

B5: 80716: IGFBP3 with IGFBP6 linker-gly 6 linker-v1v2-Fc, SEQ ID NO: 16 (protein)
chain: MSEVPVARVWLVLLLLTVQVGVTAGGASSAGLGPVVRCEPCDARALAQCAPPPAVCAELVREPGCGCCLTCALSEGQPCGIYTERCGSGLRCQPSPDEARPLQALLDGRGLCPARAPAVAEENPKESKPQAGTARPQDVNRRDQQRNPGTSTTPSQPNSAGVQDTEMGPCRREMEDTLNHLKFLNVLSPRGVHIPNCDKKGFYKKKQCRPSKGRKRGFCWCVDKYGQPLPGYTTKGKEDVHCYSMQSKPARAPAVAEENPKESKPQAGTARPQDVNRRDQQRNPGTSTTPSQPNSAGVQDTEMIYIFISDTGRPFVEMYSEIPEIIHMTEGRELVIPCRVTSPNITVTLKKFPLDTLIPDGKRIIWDSRKGFIISNATYKEIGLLTCEATVNGHLYKTNYLTHRQGYRIYDVVLSPSHGIELSVGEKLVLNCTARTELNVGIDFNWEYPSSKHQHKKLVNRDLKTQSGSEMKKFLSTLTIDGVTRSDQGLYTCAASSGLMTKKNSTFVRVHEKVECPPCPAPPVAGPSVFLFPPKPKDQLMISRTPEVTCVVVDVSHEDPEVKFNWYVDGVEVHNAKTKPREEQYNSTYRVVSVLTVLHQDWLNGKEYKCKVSNKGLPSSIEKTISKAKGQPREPQVYTLPPSREEMTKNQVSLTCLVKGFYPSDIAVEWESNGQPENNYKTTPPVLDSDGSFFLYSKLTVDKSRWQQGNVFSCSVMHEGLHNHYTQKSLSLSPGK
inhibition of FBS-induced proliferation of MCF-7 [1]: unable to inhibit

— patent US11254722B2, “Recombinant proteins and uses thereof” (ACADEMIA SINICA, priority 2017, dated 2022)
